Square brackets hold non-standard residues; d marks the D form. Ends that are not written are not given here. * marks the point of attachment. Biotin = O=C1N[C@H]2[C@H](CS[C@H]2CCCCC(=O)*)N1; pS = N[C@@H](COP(=O)(O)O)C(=O)O
T1: biotinylated non-phosphorylated TDP-43 peptide 366-414 (human, biotin on the N-terminus)
T1 peptide: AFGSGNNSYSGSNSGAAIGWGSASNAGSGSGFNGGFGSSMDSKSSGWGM

T2: biotinylated TDP-43 phospho peptide 396-409 (pS403) (human, phosphoserine at 403 (SEQ ID NO: 1 numbering); biotin on the N-terminus)
T2 peptide: GFNGGFGSSMDSKS

T3: biotinylated TDP-43 phospho peptide 396-409 (pS403 and pS404) (human, phosphoserine at 403 and 404 (SEQ ID NO: 1 numbering); biotin on the N-terminus)
T3 peptide: GFNGGFGSSMDSKS

T4: biotinylated TDP-43 phospho peptide 401-413 (pS409) (human)
T4 peptide: Biotin-FGSSMDSK[pS]SGWG

T5: biotinylated TDP-43 phospho peptide 401-413 (pS410) (human)
T5 peptide: Biotin-FGSSMDSKS[pS]GWG

T6: biotinylated TDP-43 phospho peptide 401-413 (pS409 and pS410) (human)
T6 peptide: Biotin-FGSSMDSK[pS][pS]GWG

T7: biotinylated TDP-43 phospho peptide 396-409 (pS404) (human)
T7 peptide: Biotin-GFNGGFGS[pS]MDSKS

T8: TDP-43 peptide consisting of amino acid sequence (SEQ ID NO: 5) (comprising pS375 and pS379) (human)
T8 construct: also called target peptide
T8 peptide: GNNSY[pS]GSN[pS]GAAIG

T9: Peptide 28 (human, phosphoserine at pS403 and pS404 (human TDP-43 numbering, in the SEQ ID NO: 8 part); Trioxatridecan-succinamic acid (Ttds) linker between SEQ ID NO: 7 and SEQ ID NO: 8)
T9 peptide: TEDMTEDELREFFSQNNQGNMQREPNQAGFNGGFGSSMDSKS

T10: Peptide 29 (human, phosphoserine at pS409 and pS410 (human TDP-43 numbering, in the SEQ ID NO: 9 part); Trioxatridecan-succinamic acid (Ttds) linker between SEQ ID NO: 7 and SEQ ID NO: 9)
T10 peptide: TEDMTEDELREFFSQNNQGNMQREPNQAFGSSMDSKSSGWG


Columns and labels:
[1] = target: T1, biotinylated non-phosphorylated TDP-43 …; assay: capture ELISA, antibody on anti-mouse IgG, biotinylated peptide
Method: (§1) Briefly, for capture detection in ELISA, wells of 96-well plates were coated with 5 μg/mL goat anti-mouse IgG (Fc gamma fragment specific), in carbonate buffer, overnight at 4° C. Plates were then washed with 0.05% Tween-20/PBS and blocked with 1% bovine serum albumin (BSA) in 0.05% Tween-20/PBS for 1 hour at 37° C. Phospho TDP-43 antibodies were then added at 5 μg/mL and incubated for 2 hours at 37° C. after which the plates were washed as described above. Biotinylated peptides representing each of the phospho sites, or non-phosphorylated, were incubated at 0.5 mM in 0.1% BSA and PBS for 1 hour at 37° C. after which the plates were washed. A streptavidin-HRP-conjugate (R&D Systems, Minnesota, United States) was added at 1/200 dilution in 0.05% Tween-20/1% BSA in PBS for 45 minutes in the dark at ambient temperature. After the final wash, plates were incubated with TMB (Sigma-Aldrich, Switzerland), an HRP substrate solution, and read at 405 nm using an ELISA plate reader (Tecan, Switzerland).

[2] = target: T2, biotinylated TDP-43 phospho peptide …; assay: as above
Method: as §1

[3] = target: T3, biotinylated TDP-43 phospho peptide …; assay: as above
Method: as §1

[4] = target: T4, biotinylated TDP-43 phospho peptide …; assay: as above
Method: as §1

[5] = target: T5, biotinylated TDP-43 phospho peptide …; assay: as above
Method: as §1

[6] = target: T6, biotinylated TDP-43 phospho peptide …; assay: as above
Method: as §1

[7] = target: T7, biotinylated TDP-43 phospho peptide …; assay: as above
Method: as §1

[8] = target: T11, recombinant full length TDP-43 (SEQ ID NO: 1, FL TDP-43) (human, UniProt Q13148 1-414); assay: SPR Biacore T200, FL TDP-43 immobilized, antibody analyte (avidity), 1:1 fit
T11 construct: also called recombinant human soluble FL TDP-43; soluble human TDP-43
Method: Binding avidity of ACI-7071-4665-B5-R3B-Ab2 to soluble FL TDP-43 was evaluated by determining the KD value using SPR (Biacore T200, GE Healthcare Life Sciences). Recombinant human soluble FL TDP-43 was immobilized on a CM5 Series S sensor chip (GE Healthcare Life Sciences) by amine coupling. Soluble TDP-43 was immobilized at a concentration of 5 μg/ml in 10 mM sodium acetate (pH 4.5) with a flow rate of 5 μl/min for 420 seconds resulting in an immobilization level of 150 RU. […] Antibodies were injected at a flow rate of […] for 90 seconds contact time and 700 seconds dissociation phase followed by three regenerations with 10 mM glycine-HCl (pH 1.7). For the optimized SPR protocol the antibodies were diluted 3-fold starting from 300 nM and dilute down to 1.2 nM and injected for 300 seconds at 30 μL/min followed by 600 seconds of dissociation. The chip surface was regenerated by one injection with 10 mM glycine-HCl (pH 1.7). Results obtained from binding kinetics were double referenced using a blank flow cell and a buffer cycle, and were evaluated with a global 1:1 fitting model with RI.

[9] = target: T11, recombinant full length TDP-43 (SEQ ID …); assay: pairing sandwich ELISA, biotinylated antibody as detector, FL TDP-43 titrated
Method: (§2) The capacity of antibodies to bind phospho TDP-43 and TDP-43 was determined using a sandwich enzyme-linked immunosorbent assay (ELISA), where each antibody was paired with a second TDP-43 antibody previously characterized for TDP-43 binding and performance in sandwich immunoassays, ACI-7071-809F12-Ab1-rec2 (as described in WO2020234473) or ACI-7069-636E5-Ab1 (as described in WO2020234473). ELISA plates (Nunc™ Edge™ 96-Well, Non-Treated, Flat-Bottom Microplate, ThermoFisher Scientific, Denmark) were coated with 5 μg/mL of anti-phospho TDP-43 or anti-TDP-43 antibodies in carbo/bicarbonate buffer, overnight at 4° C. Plates were then washed with 0.05% Tween-20/PBS and blocked with 1% bovine serum albumin (BSA) in 0.05% Tween-20/PBS for 1 hour at 37° C. The plates were then washed again as described above.
Serial-dilutions of target peptide or protein were then added to the plates. For assays with anti-phospho TDP-43 antibodies, one of four peptide conjugates (peptides 11, 23, 28, or 29) each composed of two TDP-43 sequences, one phosphorylated and one non-phosphorylated, conjugated together with a Trioxatridecan-succinamic acid linker (Ttds, binding regions and sequences shown in Table 4) were used. Peptides 11, 23, 28, and 29 were added in a 10-fold serial dilution starting at 0.5 μM. […] The plate was read at 450 nm using an ELISA plate reader (Tecan, Switzerland).

[10] = target: T11, recombinant full length TDP-43 (SEQ ID …); assay: pairing sandwich ELISA, antibody coated as capture, FL TDP-43 titrated
Method: as §2
Serial-dilutions of target peptide or protein were then added to the plates. For assays with anti-phospho TDP-43 antibodies, one of four peptide conjugates (peptides 11, 23, 28, or 29) each composed of two TDP-43 sequences, one phosphorylated and one non-phosphorylated, conjugated together with a Trioxatridecan-succinamic acid linker (Ttds, binding regions and sequences shown in Table 4) were used. Peptides 11, 23, 28, and 29 were added in a 10-fold serial dilution starting at 0.5 μM. For assays with TDP-43 antibodies only, recombinant full length TDP-43 (SEQ ID NO: 1, FL TDP-43) was diluted 3-fold from 21.9 pM. Plates were incubated for 1 hour at 37° C., and then washed. […] PEG-biotinylated phospho TDP-43 or TDP-43 antibodies were then respectively added to the wells and incubated for 1 hour at 37° C., after which the plates were washed. Horseradish peroxidase (HRP)-conjugated streptavidin (R&D Systems, Switzerland) was added at 1/200 dilution in 1% BSA and 0.05% Tween-20/PBS for 45 min at room temperature. […] The plate was read at 450 nm using an ELISA plate reader (Tecan, Switzerland).

[11] = target: T8, TDP-43 peptide consisting of amino acid …; assay: SPR, antibody on chip, peptide analyte
Method: For antibodies ACI-8070-942.30D12-Ab1 and ACI-7071-809F12-Ab1-rec2 affinity was measured on Biacore 5200 instrument (Cytiva, Switzerland). The instrument was primed with running buffer HBS-P+ (10× HBS-P+ diluted to 1× in Milli-Q water) and flow-cells (Fc) 1-4 of a CM7 Series S sensor chip (Cytiva, 29147020) were activated with a fresh solution of EDC/NHS (Amine Coupling Kit type 2, BR100633, Cytiva) 1:1 ratio of both reagents at 10 μL/min for 420 sec and polyclonal rabbit anti-mouse IgG antibody (Cytiva, 29215281) was immobilized at […] in 10 mM sodium acetate pH 5.0 for 420 sec. Next, all Fc were quenched with 1 M ethanolamine (Cytiva, BR100633) for 420 sec. Immobilization levels were evaluated following ethanolamine quenching. A mouse IgG2a isotype control antibody and ACI-8070-942.30D12-Ab1 were captured on Fc 1 and Fc 2, respectively. Antibodies were diluted in 10 mM sodium acetate pH5.5 to a final concentration of 50 μg/mL and injected using the aim immobilization level functionality with a target of 10000 RU. […] Results obtained from single-cycle kinetics were double-referenced using the blank Fc 1 and buffer cycles and evaluated using the Biacore Insight Evaluation software (Cytiva). […]

Peptide 28 = target: T9, Peptide 28; assay: SPR Biacore 8K, antibody captured, peptide analyte, single-cycle kinetics, 1:1 fit
Method: (§3) Each cycle started with the non-covalent capture of the antibody which were diluted in running buffer to a final concentration of 5 μg/mL and injected for 120 sec with a flow rate of 10 μL/min. Antibodies being measured were captured in channels […], leaving Fc 1 as a blank Fc. Capture levels were evaluated following a 120 sec stabilization period after each antibody injection. ACI-7071-809F12-Ab1-rec2 was used as control, binding to the non-phosphorylated sequences represented in peptides 28 and 29.
(§4) Injections of peptides 28 or 29 were performed using single-cycle kinetics with increasing concentrations ranging from 1.2 to 100 nM prepared as a 3-fold serial dilution. Injections were performed with contact times of 300 sec/injection at a flow rate of 30 μL/min. A dissociation phase of 900 sec followed the final injection. Sensor surface was regenerated by two injection of 10 mM Glycine-HCl pH 1.7 at a flow rate of 10 μL/min for 60 sec, followed by a stabilization period of 120 sec. Results obtained from single-cycle kinetics were double-referenced using the blank Fc 1 and buffer cycles and evaluated by Biacore 8K evaluation software (Cytiva). The following kinetic parameters were obtained using the 1:1 binding fit model with variable Reflective Index (RI): association rate constant (ka), dissociation rate constant (kd), affinity constant (KD) and saturation response (Rmax).

Peptide 29 = target: T10, Peptide 29; assay: as above
Method: as §3, §4

Row | binding result [1] | binding result [2] | binding result [3] | binding result [4] | binding result [5] | binding result [6] | binding result [7] | Kd [8] [nM] | koff [8] [s⁻¹] | kon [8] [M⁻¹ s⁻¹] | EC50 [9] [nM] | EC50 [10] [nM] | binding result [11] | Kd (Peptide 28) [nM] | koff (Peptide 28) [s⁻¹] | kon (Peptide 28) [M⁻¹ s⁻¹] | Kd (Peptide 29) [nM] | koff (Peptide 29) [s⁻¹] | kon (Peptide 29) [M⁻¹ s⁻¹] | Binder
1 | no binding (tested: peptide at 0.5 mM) | no binding (tested: peptide at 0.5 mM) | no binding (tested: peptide at 0.5 mM) | no binding (tested: peptide at 0.5 mM) | no binding (tested: peptide at 0.5 mM) | no binding (tested: peptide at 0.5 mM) | no binding (tested: peptide at 0.5 mM) | – | – | – | – | – | – | – | – | – | – | – | – | ACI-8070-942.30D12-Ab1 (antibody, V domains shown, Mouse hybridoma antibody; also called 942.30D12F9; pS375/pS379 TDP-43 antibody) VH: DVQLVESGGGLVQPGGSRKLSCEASGFTFSSIGMHWVRQAPEKGLEWVAYITSGSSTIYYADTVKGRFTISRDNPKNTLFLQMTSLRSEDTAIYYCAGSGPGTDYWGQGTTLTVSS VL: DIKMTQSPSSMYASLGERVTITCKASQDINSYLSWFQQKPGKSPKTLIYRANRLVDGVPSRFSGSGSGQDYSLTISSLEYEDMGIYYCLQYDEFPLTFGAGTKLELK
2 | binds | no binding (tested: peptide at 0.5 mM) | no binding (tested: peptide at 0.5 mM) | no binding (tested: peptide at 0.5 mM) | no binding (tested: peptide at 0.5 mM) | no binding (tested: peptide at 0.5 mM) | no binding (tested: peptide at 0.5 mM) | 0.39 | 1.66e-05 | 42900 | 0.181 | 0.072 | – | – | – | – | – | – | – | ACI-7071-4665-B5-R3B-Ab2 (antibody, mouse IgG2a, V domains shown, also called 4665-B5-R3B-B8; ACI-7071-4665-B5-Ab2) VH: QVQLKQSGPELVKPGASVKLSCKASGYTFTTYDINWVKQRPGQGPEWIGWIYPRVGNTKYNEKFKDKATLTVDTSSSTAYMELHSLTSEDSAVYFCASALTYWGQGTLVTVSA VL: not shown
3 | – | – | – | – | – | – | – | – | – | – | – | 0.181 | no binding | 4.5 | 0.00231 | 514000 | 7 | 0.00343 | 490000 | ACI-7071-809F12-Ab1-rec2 (as described in WO2020234473) (antibody, V domains shown, also called 809F12D8) VH: QVQLKESGPGLVAPSQSLSITCTVSGFSLNRNGVQWVRQPPGKGLEWLGVIWPGGSTNCNSALMSRLSISKDNSKSQVFLKMNSLHTDDTGIYYCARVGGNYVWDYNNYAWGQGTLVTVSA VL: DVLMTQTPLSLPVSLGDQASISCRSSQNIVHSIGNTYLEWYLQKPGQSPKLLIYKVSNRFSGVPDRFSGSGSGTDFTLKISRVEAEDLGVYYCFQGSHVPYTFGGGTKLEIR

— patent publication US20260043816A1 (AC IMMUNE, published 2026)
